Laboratory results taken from US20230212549A1 (3B PHARMACEUTICALS, published 2023).
“And” between values parts separate entries of the source, which are not always exact repeats. Equal values may be shown once. Numbered stars: 1 amine (or outer) side, 2 acyl side, 3 side chain; on linkers, the order of the positions; unused ones are H or OH. Bridge positions count the residues as written; N and C are the ends. Square brackets hold non-standard residues; d marks the D form. * marks the point of attachment. TBMB(SCH2CH2NH-DOTA) = O=C(O)CN1CCN(CC(=O)O)CCN(CC(=O)NCCSCc2cc(C[*:1])cc(C[*:2])c2)CCN(CC(=O)O)CC1; Ttds = 1,13-diamino-4,7,10-trioxatridecan-succinamic acid, O=C(CCC(=O)[*:2])NCCCOCCOCCOCCCN[*:1]; 3MeBn = 3-Methylbenzylidene (m-xylylene thioether bridge from α,α′-dibromo-m-xylene); N4Ac = 6-Carboxy-1,4,8,11-tetraazaundecane, an N4-chelator, NCCNCC(CNCCN)C(=O)*; DOTA = O=C(O)CN1CCN(CC(=O)O)CCN(CC(=O)*)CCN(CC(=O)O)CC1; Oic = O=C(O)[C@@H]1C[C@@H]2CCCC[C@@H]2N1; mXylylene = c1cc(C[*:1])cc(C[*:2])c1; NMeF = CN[C@@H](Cc1ccccc1)C(=O)O; Nle = CCCC[C@H](N)C(=O)O; Hexanoyl = CCCCCC(=O)*; AEEA = NCCOCCOCC(=O)O; Inp = O=C(O)C1CCNCC1; Ahx = NCCCCCC(=O)O

B1: Hex-[Cys-(tMeBn(H-O2Oc-PP))-Pro-Pro-Thr-Gln-Phe-Cys]-Asp-NH2 (peptide)
peptide: Hexanoyl-CPPTQFCD-NH2
modifications: linker 1-7 via tMeBn(H-O2Oc-PP)
notes: also called 3BP-3967
B2: H-Ahx-Ttds-Nle-[Cys-(3MeBn)-Pro-Pro-Thr-Gln-Phe-Cys]-Asp-NH2 (peptide)
peptide: H-[Ahx][Ttds][Nle]CPPTQFCD-NH2
modifications: linker 4-10 via mXylylene
SMILES: CCCC[C@H](NC(=O)CCC(=O)NCCCOCCOCCOCCCNC(=O)CCCCCN)C(=O)N[C@H]1CSCc2cccc(c2)CSC[C@@H](C(=O)N[C@@H](CC(=O)O)C(N)=O)NC(=O)[C@H](Cc2ccccc2)NC(=O)[C@H](CCC(N)=O)NC(=O)[C@H]([C@@H](C)O)NC(=O)[C@@H]2CCCN2C(=O)[C@@H]2CCCN2C1=O
notes: also called 3BP-3980
B3: Hex-[Cys-(tMeBn(DOTA-AET))-Pro-Pro-Thr-Glu-Phe-Cys]-OH (peptide)
peptide: Hexanoyl-CPPTEFC-OH
modifications: linker 1-7 via TBMB(SCH2CH2NH-DOTA)
SMILES: CCCCCC(=O)N[C@H]1CSCc2cc(CSCCNC(=O)CN3CCN(CC(=O)O)CCN(CC(=O)O)CCN(CC(=O)O)CC3)cc(c2)CSC[C@@H](C(=O)O)NC(=O)[C@H](Cc2ccccc2)NC(=O)[C@H](CCC(=O)O)NC(=O)[C@H]([C@@H](C)O)NC(=O)[C@@H]2CCCN2C(=O)[C@@H]2CCCN2C1=O
notes: also called 3BP-4250
B4: N4Ac-O2Oc-Nle-[Cys-(3MeBn)-Pro-Pro-Thr-Glu-Phe-Cys]-OH (peptide)
peptide: N4Ac-[AEEA][Nle]CPPTEFC-OH
modifications: linker 3-9 via 3MeBn
notes: also called 3BP-4228
B5: Ac-Met-[Cys(3MeBn)-Pro-Oic-Thr-Glu-Phe-Cys]-Asp-His-Phe-Arg-Asp-NH2 (peptide)
peptide: Ac-MCP[Oic]TEFCDHFRD-NH2
modifications: linker 2-8 via mXylylene
SMILES: CSCC[C@H](NC(C)=O)C(=O)N[C@H]1CSCc2cccc(c2)CSC[C@@H](C(=O)N[C@@H](CC(=O)O)C(=O)N[C@@H](Cc2c[nH]cn2)C(=O)N[C@@H](Cc2ccccc2)C(=O)N[C@@H](CCCNC(=N)N)C(=O)N[C@@H](CC(=O)O)C(N)=O)NC(=O)[C@H](Cc2ccccc2)NC(=O)[C@H](CCC(=O)O)NC(=O)[C@H]([C@@H](C)O)NC(=O)[C@@H]2C[C@@H]3CCCC[C@@H]3N2C(=O)[C@@H]2CCCN2C1=O
notes: also called 3BP-3217
B6: DOTA-Inp-[Cys(3MeBn)-Pro-Pro-Thr-Glu-Phe-Cys]-Asp-His-Nmf-Arg-Asp-NH2 (peptide)
peptide: {DOTA}-[Inp]CPPTEFCDH[NMeF]RD-NH2
modifications: linker 2-8 via mXylylene
SMILES: C[C@@H](O)[C@@H]1NC(=O)[C@@H]2CCCN2C(=O)[C@@H]2CCCN2C(=O)[C@@H](NC(=O)C2CCN(C(=O)CN3CCN(CC(=O)O)CCN(CC(=O)O)CCN(CC(=O)O)CC3)CC2)CSCc2cccc(c2)CSC[C@@H](C(=O)N[C@@H](CC(=O)O)C(=O)N[C@@H](Cc2c[nH]cn2)C(=O)N(C)[C@@H](Cc2ccccc2)C(=O)N[C@@H](CCCNC(=N)N)C(=O)N[C@@H](CC(=O)O)C(N)=O)NC(=O)[C@H](Cc2ccccc2)NC(=O)[C@H](CCC(=O)O)NC1=O
notes: also called 3BP-3265
B7: Ac-Met-[Cys(3MeBn)-Oic-Pro-Thr-Glu-Phe-Cys]-Asp-His-Phe-Arg-Asp-NH2 (peptide)
peptide: Ac-MC[Oic]PTEFCDHFRD-NH2
modifications: linker 2-8 via mXylylene
SMILES: CSCC[C@H](NC(C)=O)C(=O)N[C@H]1CSCc2cccc(c2)CSC[C@@H](C(=O)N[C@@H](CC(=O)O)C(=O)N[C@@H](Cc2c[nH]cn2)C(=O)N[C@@H](Cc2ccccc2)C(=O)N[C@@H](CCCNC(=N)N)C(=O)N[C@@H](CC(=O)O)C(N)=O)NC(=O)[C@H](Cc2ccccc2)NC(=O)[C@H](CCC(=O)O)NC(=O)[C@H]([C@@H](C)O)NC(=O)[C@@H]2CCCN2C(=O)[C@@H]2C[C@@H]3CCCC[C@@H]3N2C1=O
notes: also called 3BP-3216
B8: DOTA-Ahx-[Cys(3MeBn)-Pro-Pro-Thr-Glu-Phe-Cys]-Asp-His-Nmf-Arg-Asp-NH2 (peptide)
peptide: {DOTA}-[Ahx]CPPTEFCDH[NMeF]RD-NH2
modifications: linker 2-8 via mXylylene
SMILES: C[C@@H](O)[C@@H]1NC(=O)[C@@H]2CCCN2C(=O)[C@@H]2CCCN2C(=O)[C@@H](NC(=O)CCCCCNC(=O)CN2CCN(CC(=O)O)CCN(CC(=O)O)CCN(CC(=O)O)CC2)CSCc2cccc(c2)CSC[C@@H](C(=O)N[C@@H](CC(=O)O)C(=O)N[C@@H](Cc2c[nH]cn2)C(=O)N(C)[C@@H](Cc2ccccc2)C(=O)N[C@@H](CCCNC(=N)N)C(=O)N[C@@H](CC(=O)O)C(N)=O)NC(=O)[C@H](Cc2ccccc2)NC(=O)[C@H](CCC(=O)O)NC1=O
notes: also called 3BP-3266
B9: DOTA-O2Oc-[Cys(3MeBn)-Pro-Pro-Thr-Glu-Phe-Cys]-Asp-His-Nmf-Arg-Asp-NH2 (peptide)
peptide: {DOTA}-[AEEA]CPPTEFCDH[NMeF]RD-NH2
modifications: linker 2-8 via mXylylene
SMILES: C[C@@H](O)[C@@H]1NC(=O)[C@@H]2CCCN2C(=O)[C@@H]2CCCN2C(=O)[C@@H](NC(=O)COCCOCCNC(=O)CN2CCN(CC(=O)O)CCN(CC(=O)O)CCN(CC(=O)O)CC2)CSCc2cccc(c2)CSC[C@@H](C(=O)N[C@@H](CC(=O)O)C(=O)N[C@@H](Cc2c[nH]cn2)C(=O)N(C)[C@@H](Cc2ccccc2)C(=O)N[C@@H](CCCNC(=N)N)C(=O)N[C@@H](CC(=O)O)C(N)=O)NC(=O)[C@H](Cc2ccccc2)NC(=O)[C@H](CCC(=O)O)NC1=O
notes: also called 3BP-3267

The binders below were run against T1, human fibroblast activation protein (FAP) on WI-38 fibroblasts (human, UniProt Q12884 1-760) (assay: competitive FACS, WI-38 cells, Cy5-labeled peptide as competitor).
T1 construct: FAP-expressing human WI-38 fibroblasts (ECACC)

| pIC50 Category (FACS) [pIC50] | Binder |
| --- | --- |
| > 8 | B1 |
| > 8 | B2 |
| > 8 | B3 |
| ≤ 6 | B4 |

These binders were tested against Recombinant human FAP (R&D systems, #3715-SE) (human, UniProt Q12884 26-760) (assay: cell-based or functional assay).

| pIC50 Category (Activity) | Binder |
| --- | --- |
| 6.1 pIC50 and 7 pIC50 | B5 |
| 6.1 pIC50 and 7 pIC50 | B6 |
| 6.1 pIC50 and 7 pIC50 | B7 |
| 6.1 pIC50 and 7 pIC50 | B8 |
| 6.1 pIC50 and 7 pIC50 | B9 |

These binders were tested against T2, Recombinant human FAP (R&D systems, #3715-SE) (human, UniProt Q12884 26-760) (assay: cell-based or functional assay).

| pIC50 Category (Activity) [pIC50] | Binder |
| --- | --- |
| > 8 | B1 |
| > 8 | B2 |

The binders below were run against T2, Recombinant human FAP (R&D systems, …) (assay: SPR (Biacore T200), FAP captured on anti-FAP antibody, single cycle kinetics).

| pKD Category [pKD] | Binder |
| --- | --- |
| > 8 | B3 |

These binders were tested against T3, fibroblast activation protein (FAP) on FAP-expressing human WI-38 fibroblasts (human, UniProt Q12884 1-760) (assay: competitive FACS, WI-38 cells, vs Cy5 tracer m3; C = pIC50 6.1-7.0).
T3 construct: also called human FAP

| pIC50 Category (FACS) | Binder |
| --- | --- |
| 6.1 pIC50 and 7 pIC50 | B5 |
| 6.1 pIC50 and 7 pIC50 | B6 |
| 6.1 pIC50 and 7 pIC50 | B7 |
| 6.1 pIC50 and 7 pIC50 | B8 |
| 6.1 pIC50 and 7 pIC50 | B9 |
